In US6384189 (UAB RESEARCH FOUNDATION, dated 2002):
Where two headings read alike, the source gives them in different places.

Key:
[1] = target: recombinant small latent TGF-β; experiment: cell-based or functional assay
[2] = target: recombinant small latent TGF-β; experiment: cell-based or functional assay; remark: listed apart in the source

Binder	Fold Activation of Latent TGF-β over Baseline (soft agar NRK colony formation) [1]	Fold Activation of Latent TGF-β over Baseline (soft agar NRK colony formation) [2]
KRFKQDGGWSHWSP [KRFKQDGGWSHWSP (SEQ ID NO:14)]	2.3 fold over baseline	
KRFKQDGG [KRFKQDGG (SEQ ID NO:9)]	2.1 fold over baseline	
HRFK [HRFK (SEQ ID NO:6)]		2 fold over baseline
KRFKQDGGWSHW [KRFKQDGGWSHW (SEQ ID NO:16)]	1.9 fold over baseline	
KKFK [KKFK (SEQ ID NO:32)]		2.2 fold over baseline
KRFK [KRFK (SEQ ID NO:5)]	2 fold over baseline	2 fold over baseline

Now from value to binder:

Fold Activation of Latent TGF-β over Baseline (soft agar NRK colony formation) [1]	Fold Activation of Latent TGF-β over Baseline (soft agar NRK colony formation) [2]	Binder
2.1 fold over baseline		KRFKQDGGWWSP [KRFKQDGGWWSP (SEQ ID NO:17)]
2 fold over baseline		KRFKQDGGWSHWSPWSS [KRFKQDGGWSHWSPWSS (SEQ ID NO:15)]
	2 fold over baseline	QRFK [QRFK (SEQ ID NO:8)]
